In patent US20160264680A1 (INSERM INSTITUT NATIONAL DE LA SANTE ET DE LA RECHERCHE …, published 2016):

B1: scFv 2D1, soluble monovalent scFv (scFv)
scFv: MAQVKLQESGGGLVQPGGSLRLSCAASGFTFDSYAMSWVRQAPGKGLEWVSYITSSSSTIYYVDSVKGRFTISRDNAKNSLYLQMNSLRDEDTAVYYCARLRNSEGYWYFDLWGRGTLVTVSSGGGGSGGGGSGGGGSQSALTQDPAVSVALGQTVRITCQGDSLRSYFASWYQQKPGQAPLLVMYGQNIRPSGIPDRFSGSSSGNSASLTITGAQAEDEADYYCNSRDSSYNHWVFGGGTKLTVLG
notes: Expressed from phagemid pHEN in E. coli TG1, used as culture supernatant
B2: scFv 3G1, soluble monovalent scFv (scFv)
scFv: MAQVQLVESWGGVAQPGRSLRLSCAASGFTFSSFAMHWVRQAPGKGLEWVAVTSYDGSNEYYADSVKGRFTISRDNSKNTLYLQMNSLRAEDTAVYYCAKAMVRGVTFGDLDYWGQGTLVTVSSGGGGSGGGGSGGGGSSELTQDPAVSVALGQTVRITCQGDSLRSYYASWYQQKPEQAPVLVIYGENSRPSGIPDRFSGSSSGNTASLTITGAQAEDEADYYCNSRDSSGTHLRVFGGGTKLTVLG
notes: as for B1
B3: affinity matured scFv-2D1C7 displayed on yeast (scFv)
chain: MAQVKLQESGGGLVQPGGSLRLSCAASGFTFDSYAMSWVRQAPGKGLEWVSYITSSSSTIYYVDSVKGRFTISRDNAKNSLYLQMNSLRDEDTAVYYCARLRNSEGYWYFDLWGRGTLVTVSSGGGGSGGGGSGGGGSQSVLTQDPAVSVALGQTVRITCQGDSLRSYYASWYQQKPGQAPLLVMYGENIRPSGIPDRFSGSTSGNSASLTITGAQAEDEADYYCNSRDSSGNHLNWVFGGGTKLTVLG
B4: affinity matured scFv-3G1A2 displayed on yeast (scFv)
chain: MAQVQLVESWGGVAQPGRSLRLSCAASGFTFSSFAMHWVRQAPGKGLEWVAVTSYDGSNEYYADSVKGRFTISRDNSKNTLYLQMNSLRAEDTAVYYCAKAMVRGVTFGDLDYWGQGTLVTVSSGGGGSGGGGSGGGGSSELTQDPAVSVALGQTVRKTCQGDSLKSYYASWYQQKPGQAPVLVIYGENSRPSGIPDRFSGSSSGNTASLTITGAQAEDEADYYCCSRATGGYHRIFGGGTKLTVLG

Columns and labels:
[1] = biological target: wild type human KIT on cells (TF-1, Ba/F3-KIT, UT-7/EPO) (human) (UniProt P10721); assay: cell-based or functional assay
[2] = biological target: T1, recombinant soluble human KIT extracellular domain (KIT-ECD), C-terminal 6His tag (human, UniProt P10721 26-509, biotinylated in the yeast display assays (sites not given)); assay: soluble scFv ELISA on KIT-ECD
T1 construct: range 26-509; Made in High Five insect cells with a baculovirus, purified on Ni-NTA; major protein of 60 kD; Monovalent; also called c-KIT ECD; recombinant KIT

[3] = biological target: T2, human KIT V560G D816V as expressed on HMC1.2 mastocytoma cells (human, UniProt P10721 26-976); assay: FACS on HMC1.2 cells, soluble scFv from concentrated bacterial supernatant, detected with anti-c-myc and anti-mouse Ig-PE [panel D]
T2 construct: whole, on cells; also called endogenous KIT on HMC1.2
Experimental: (D) FACS analysis of scFv binding to HMC1.2 cells. ScFvs were induced with IPTG 1 mM overnight at 25° C. from TG1 bacterial containing pHEN phagemid. Supernatant was collected, concentrated on Amicon ultra-4 centrifugal units and incubated with HMC1.2 cells at 4° C. ScFv binding to cells was detected with an anti-c-myc antibody and anti-mouse immunoglobulins conjugated to phycoerythrin. Fluorescence was measured by FACS.
Two hundred thousand HMC1.2 cells were resuspended in 100 μL of PBS-1% FBS at 4° C. (FACS buffer). One hundred μL of culture supernatant was added to the cells during 2 hours at 4° C. Cells were washed with FACS buffer and scFv binding to cells was detected with an anti-c-myc antibody (9E10; Sigma) followed by goat anti-mouse immunoglobulins (Ig) conjugated to PE (Beckton Dickinson).

[4] = biological target: T1, recombinant soluble human KIT …; assay: flow cytometry of yeast displaying the scFv with biotinylated KIT-ECD, streptavidin-PE

T1 sequence (P10721 other isoform, or with tags, fused parts or gaps limits assumed): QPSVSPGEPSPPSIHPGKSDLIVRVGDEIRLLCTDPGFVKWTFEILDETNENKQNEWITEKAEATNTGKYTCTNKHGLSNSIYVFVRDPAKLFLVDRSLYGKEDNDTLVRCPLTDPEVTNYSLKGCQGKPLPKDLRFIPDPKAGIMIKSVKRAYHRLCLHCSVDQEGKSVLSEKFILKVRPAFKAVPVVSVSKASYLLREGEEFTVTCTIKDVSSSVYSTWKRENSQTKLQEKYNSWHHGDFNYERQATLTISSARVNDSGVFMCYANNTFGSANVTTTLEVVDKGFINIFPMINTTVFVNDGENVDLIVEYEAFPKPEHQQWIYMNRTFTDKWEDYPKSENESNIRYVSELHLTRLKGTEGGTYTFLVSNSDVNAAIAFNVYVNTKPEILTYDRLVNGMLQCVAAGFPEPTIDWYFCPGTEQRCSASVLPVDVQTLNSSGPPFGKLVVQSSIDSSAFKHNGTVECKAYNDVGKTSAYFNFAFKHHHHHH
T2 sequence (P10721 26-976 V560G/D816V): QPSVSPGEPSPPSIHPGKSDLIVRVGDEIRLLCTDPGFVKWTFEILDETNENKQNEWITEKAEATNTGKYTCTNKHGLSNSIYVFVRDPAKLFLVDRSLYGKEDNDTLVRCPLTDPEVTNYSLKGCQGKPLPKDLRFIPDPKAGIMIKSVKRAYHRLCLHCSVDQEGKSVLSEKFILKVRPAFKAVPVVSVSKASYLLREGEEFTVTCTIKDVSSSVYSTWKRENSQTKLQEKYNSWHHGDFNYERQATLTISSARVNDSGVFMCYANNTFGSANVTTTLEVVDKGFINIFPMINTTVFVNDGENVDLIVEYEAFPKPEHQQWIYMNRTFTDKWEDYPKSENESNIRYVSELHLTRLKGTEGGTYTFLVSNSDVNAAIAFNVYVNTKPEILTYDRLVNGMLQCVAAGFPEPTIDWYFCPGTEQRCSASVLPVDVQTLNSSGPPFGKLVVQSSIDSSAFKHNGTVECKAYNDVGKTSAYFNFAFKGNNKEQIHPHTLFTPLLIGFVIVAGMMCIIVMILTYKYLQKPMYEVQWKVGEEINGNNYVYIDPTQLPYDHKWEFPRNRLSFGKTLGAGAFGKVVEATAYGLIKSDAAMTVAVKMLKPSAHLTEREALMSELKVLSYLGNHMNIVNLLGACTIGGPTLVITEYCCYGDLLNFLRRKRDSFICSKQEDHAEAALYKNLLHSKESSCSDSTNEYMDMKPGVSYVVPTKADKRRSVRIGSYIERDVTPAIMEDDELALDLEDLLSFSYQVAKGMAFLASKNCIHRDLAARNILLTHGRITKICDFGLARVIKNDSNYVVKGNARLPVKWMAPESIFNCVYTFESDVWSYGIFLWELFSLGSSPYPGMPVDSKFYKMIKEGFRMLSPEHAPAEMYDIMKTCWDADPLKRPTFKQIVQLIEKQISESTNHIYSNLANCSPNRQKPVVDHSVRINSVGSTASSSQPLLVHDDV
wild type human KIT on cells (TF-1, Ba/F3-KIT, UT-7/EPO) (human), sequence (P10721 26-976): as the sequence (P10721 26-976 V560G/D816V) above, with G535V, V791D counted along it

Row | Molecule | KIT surface down-regulation on UT-7/EPO cells after 1 hour (FACS with 104D2) [1] | binding result [2] | binding result [3] | Kd [4]
1 | mouse SCF in CHO-KL culture supernatant (from UniProt P20826 26-190) (ligand) | 70% | – | – | –
2 | B1 | – | binds | binds | –
3 | B2 | – | binds | binds | –
4 | B3 | – | – | – | 4.2 nM
5 | B4 | – | – | – | 1.7 nM
